Experimental data as given in US20260297188 (published 2026).

T1: human NKp46 ECD (human)
T1 chain: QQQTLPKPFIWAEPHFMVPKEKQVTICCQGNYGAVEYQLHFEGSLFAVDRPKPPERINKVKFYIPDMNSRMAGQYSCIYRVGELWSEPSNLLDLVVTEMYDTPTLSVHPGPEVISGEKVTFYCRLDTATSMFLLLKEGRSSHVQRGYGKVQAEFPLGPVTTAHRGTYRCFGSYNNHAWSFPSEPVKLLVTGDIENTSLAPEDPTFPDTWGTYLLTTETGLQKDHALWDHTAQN


Target: T1, human NKp46 ECD
Experiment: SPR, 25C

| Kd | Binder |
| --- | --- |
| 0.361 nM | IP-46-3 (antibody, V domains shown) VH: EVQLQQSGPELVKPGASVKISCKTSGYTFTEYTMHWVKQSHGKSLEWIGGISPNIGGTSYNQKFKGKATLTVDKSSSTAYMELRSLTSEDSAVYYCARRGGSFDYWGQGTTLTVSS VL: DIVMTQSPATLSVTPGDRVSLSCRASQSISDYLHWYQQKSHESPRLLIKYASQSISGIPSRFSGSGSGSDFTLSINSVEPEDVGVYYCQNGHSFPLTFGAGTKLELK |
| 0.0209 nM | ch6-1 (antibody, V domains shown) VH: QSLEESGGGLVQPEGSLTLTCTASGFSFSSSAWICWVRQAPGKGLEWIGCINTVSVNAYYASWAKGRFTISKTSSTTVTLQVTSLTAADTATHFCARNPYNSLRLWGPGTLVTVSS VL: DVVMTQTPASVSEPVGGTITINCQASENIYSSLAWYQQKPGQPPKLLMYDVSDLASGVPSRFSGSGSGTEFALTISDVQPDDAATYFCLGGYPSNNYRMAFGGGTEVVVK |

The next lines start with the binder.

| Binder | Kd |
| --- | --- |
| ch5-13 (antibody, V domains shown) VH: QSVEESGGRLVTPGTPLTLTCTVSGFSLSSYHMSWVRQAPGKGLEWIGYILANTDSYYANWAKGRFTISKTSTTVDLKITSPTTEDTATYFCARYDNHDAAYSTLWGPGTLVTVSS VL: AYDMTQTPASVEVAVGGTVTIKCQASQSISTALAWYQQKPGQPPKLLIYKASTLASGVSSRFKGSGSGTQFTLTISGVEPADAATYYCQQGYSRSNVDNVFGGGTEVVVK | 0.194 nM |
| ch3-7 (antibody, V domains shown) VH: QSLEESGGRLVTPGTPLTLTCTVSGFSPSSYYMSWVRQAPGKGLEYIGIIFSGGSTWYASWAKGRVTISRTSTTVDLKMTSLTTEDTATYFCARGDAVGSGYWGLWGPGTLVTVSS VL: AFELTQTPSSVEAAVGGTVTINCQASQDIYIYLAWYQQKPGQPPKLLIYSASTLASGVSSRFTGSRSGTQFTLTISDLEPADAATYYCQSYDGTSNTGFGGGTEVVVR | 0.0199 nM |
